One data set addresses His-S6K1C (UniProt P23443).
In another data set the target is 4E-BP1 (Calbiochem) (UniProt Q13541).
Sequence of 4E-BP1 (Calbiochem) (Q13541 whole entry): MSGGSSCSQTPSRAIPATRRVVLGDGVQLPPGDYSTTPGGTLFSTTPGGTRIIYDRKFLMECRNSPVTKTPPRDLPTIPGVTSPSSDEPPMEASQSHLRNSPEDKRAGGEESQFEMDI

Sequence of His-S6K1C (P23443 332-502): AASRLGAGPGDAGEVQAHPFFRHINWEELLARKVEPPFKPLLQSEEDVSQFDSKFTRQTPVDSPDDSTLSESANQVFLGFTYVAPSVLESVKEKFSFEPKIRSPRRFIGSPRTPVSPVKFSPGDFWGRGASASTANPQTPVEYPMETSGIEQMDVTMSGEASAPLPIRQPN

For FLAG-mTORα, the “mTOR in vitro kinase assay; immunoblot with phosphospecific antibody pT389-S6K1” value with His-S6K1C was “mTORβ can phosphorylate both S6K1 and 4E-BP1 in vitro, but to a lesser extent than mTORα”. For the same substance, the “mTOR in vitro kinase assay; immunoblot with phosphospecific antibody pS65-4E-BP1” value with 4E-BP1 (Calbiochem) was “mTORβ can phosphorylate both S6K1 and 4E-BP1 in vitro, but to a lesser extent than mTORα”.

(Values after US20170145391.)
